The record followed here is publication PMC11969024 (2025).

B1: peptide HD2 (from tick evasin EVA4) / CXCL14 (biotinylated, synthetic) (parent complex)
chain 1: EEDDYTAYAPLTCYFT
chain 2: SKCKCSRKGPKIRYSDVKKLEMKPKYPHCEEKMVIITTKSVSRYRGQEHCLHPKLQSTKRFIKWYNAWNEKRRVYEE
B2: peptide HD2 (from tick evasin EVA4) / CCL1 (biotinylated, synthetic) (parent complex)
chain 1: EEDDYTAYAPLTCYFT
chain 2: KSMQVPFSRCCFSFAEQEIPLRAILCYRNTSSICSNEGLIFKLKRGKEACALDTVGWVQRHRKMLRHCPSKRK

In the first assay the parent is B1.
On to chain 1 A9I, for which the enrichment is 0.725 log2 (difference from the parental peptide). With chain 1 A9L, the enrichment was 0.282 log2 (difference from the parental peptide). Still for that read-out and setting: the value for chain 1 A9Y was -5.34 log2 (difference from the parental peptide); that for chain 1 A9M was 0.996 log2 (difference from the parental peptide). The same measure, in the same setting: as for chain 1 E2L, the figure is -1.86 log2 (difference from the parental peptide). On the same count and under the same terms, as for chain 1 E2T, the figure is -2.03 log2 (difference from the parental peptide). In the case of chain 1 E2W, the enrichment was 0.435 log2 (difference from the parental peptide).

As for chain 1 T16K, the enrichment was 0.732 log2 (difference from the parental peptide). The same measure, in the same setting: the value for chain 1 T16P was -4.73 log2 (difference from the parental peptide). Same read-out and setting: as for chain 1 T16V, the figure is -2.39 log2 (difference from the parental peptide); as for chain 1 T16E, -5.76 log2 (difference from the parental peptide); as for chain 1 T16M, 1.39 log2 (difference from the parental peptide). The same measure, in the same setting: the value for chain 1 T16A was -3.04 log2 (difference from the parental peptide). In the case of chain 1 C13W, the enrichment is -7.91 log2 (difference from the parental peptide). The same measure, in the same setting: as for chain 1 C13E, the figure is -8.19 log2 (difference from the parental peptide); as for chain 1 C13V, 2.72 log2 (difference from the parental peptide). Take chain 1 T12F: the enrichment is 2.31 log2 (difference from the parental peptide). The same measure, in the same setting: the value for chain 1 T12P was -5.93 log2 (difference from the parental peptide); that for chain 1 T12Q was -4.89 log2 (difference from the parental peptide). Same read-out and setting: the value for chain 1 T12Y was 2.9 log2 (difference from the parental peptide); that for chain 1 T12L was 1.89 log2 (difference from the parental peptide). The same measure, in the same setting: as for chain 1 T12C, the figure is -5.89 log2 (difference from the parental peptide).

Take chain 1 T12K: the enrichment was -5.85 log2 (difference from the parental peptide). The same measure, in the same setting: the value for chain 1 Y14L was -8.75 log2 (difference from the parental peptide); that for chain 1 Y14Q was -6.31 log2 (difference from the parental peptide). As for chain 1 Y14W, the enrichment is -6.55 log2 (difference from the parental peptide).

As for chain 1 D3E, the enrichment is -1.97 log2 (difference from the parental peptide). Still for that read-out and setting: the value for chain 1 D3P was -5.77 log2 (difference from the parental peptide). On the same count and under the same terms, as for chain 1 L11H, the figure is 3.17 log2 (difference from the parental peptide); as for chain 1 L11W, 0.85 log2 (difference from the parental peptide); as for chain 1 L11F, 1.48 log2 (difference from the parental peptide).

In the case of chain 1 L11M, the enrichment was 2.64 log2 (difference from the parental peptide).

On to chain 1 L11S, for which the enrichment is -6.87 log2 (difference from the parental peptide). On to chain 1 L11T, for which the enrichment is -4.92 log2 (difference from the parental peptide). Same read-out and setting: the value for chain 1 L11Q was -4.52 log2 (difference from the parental peptide).

As for chain 1 A7E, the enrichment is 2.45 log2 (difference from the parental peptide). On the same count and under the same terms, the value for chain 1 A7K was 3.78 log2 (difference from the parental peptide); that for chain 1 A7P was -3.32 log2 (difference from the parental peptide); that for chain 1 A7F was 2.13 log2 (difference from the parental peptide). Same read-out and setting: as for chain 1 A7L, the figure is 0.408 log2 (difference from the parental peptide); as for chain 1 A7V, -1.42 log2 (difference from the parental peptide); as for chain 1 F15I, -3.52 log2 (difference from the parental peptide). The same measure, in the same setting: as for chain 1 F15R, the figure is -5.53 log2 (difference from the parental peptide); as for chain 1 T6H, -0.995 log2 (difference from the parental peptide). chain 1 T6L: the enrichment is 0.717 log2 (difference from the parental peptide). The same measure, in the same setting: as for chain 1 T6R, the figure is 3.99 log2 (difference from the parental peptide).

chain 1 T6I: the enrichment was 0.467 log2 (difference from the parental peptide).

Turning to chain 1 T6V, the enrichment is -0.538 log2 (difference from the parental peptide). On the same count and under the same terms, as for chain 1 T6C, the figure is -9.38 log2 (difference from the parental peptide). Same read-out and setting: as for chain 1 T6G, the figure is 4.19 log2 (difference from the parental peptide).

Turning to chain 1 T6A, the enrichment was 0.332 log2 (difference from the parental peptide). The same measure, in the same setting: as for chain 1 T6W, the figure is 5.58 log2 (difference from the parental peptide); as for chain 1 D4S, -1.33 log2 (difference from the parental peptide). Same read-out and setting: as for chain 1 D4N, the figure is 1.31 log2 (difference from the parental peptide); as for chain 1 D4W, -5.85 log2 (difference from the parental peptide); as for chain 1 D4Y, -1.42 log2 (difference from the parental peptide). In the case of chain 1 Y5I, the enrichment was 0.188 log2 (difference from the parental peptide). Still for that read-out and setting: as for chain 1 Y5H, the figure is -3.59 log2 (difference from the parental peptide).

With chain 1 Y5C, the enrichment was -4.43 log2 (difference from the parental peptide). In the case of chain 1 E1I, the enrichment was 3.24 log2 (difference from the parental peptide). On the same count and under the same terms, the value for chain 1 E1F was 0.23 log2 (difference from the parental peptide). Still for that read-out and setting: as for chain 1 E1L, the figure is 0.456 log2 (difference from the parental peptide); as for chain 1 E1D, 2.43 log2 (difference from the parental peptide).

chain 1 E1W: the enrichment was -4.16 log2 (difference from the parental peptide).

On to chain 1 P10W, for which the enrichment is 1.96 log2 (difference from the parental peptide).

Take chain 1 P10S: the enrichment was -0.979 log2 (difference from the parental peptide). Same read-out and setting: as for chain 1 P10G, the figure is -1.01 log2 (difference from the parental peptide); as for chain 1 Y8V, 3.87 log2 (difference from the parental peptide). Same read-out and setting: as for chain 1 Y8F, the figure is -1.72 log2 (difference from the parental peptide); as for chain 1 Y8D, 2.61 log2 (difference from the parental peptide).

In the next assay the parent is B2.
On to chain 1 A7F, for which the enrichment was -3.93 log2 (difference from the parental peptide). Still for that read-out and setting: as for chain 1 A7I, the figure is -3.58 log2 (difference from the parental peptide); as for chain 1 A7E, 0.457 log2 (difference from the parental peptide).

On to chain 1 A7L, for which the enrichment was -2.16 log2 (difference from the parental peptide). The same measure, in the same setting: the value for chain 1 A7H was -2.76 log2 (difference from the parental peptide); that for chain 1 A7M was 1.33 log2 (difference from the parental peptide); that for chain 1 A7N was -1.23 log2 (difference from the parental peptide). On the same count and under the same terms, as for chain 1 T16F, the figure is -0.729 log2 (difference from the parental peptide); as for chain 1 T16S, 0.836 log2 (difference from the parental peptide); as for chain 1 T16N, -0.351 log2 (difference from the parental peptide).

Take chain 1 T16C: the enrichment was 0.749 log2 (difference from the parental peptide).

Turning to chain 1 T16Q, the enrichment is 0.281 log2 (difference from the parental peptide). Same read-out and setting: as for chain 1 T16A, the figure is 1.5 log2 (difference from the parental peptide). Still for that read-out and setting: as for chain 1 T16L, the figure is -0.0976 log2 (difference from the parental peptide).

For the variant chain 1 T16G, the enrichment is 1.22 log2 (difference from the parental peptide).

Regarding chain 1 F15E, the enrichment is -0.986 log2 (difference from the parental peptide). On the same count and under the same terms, as for chain 1 F15N, the figure is -1.79 log2 (difference from the parental peptide); as for chain 1 F15S, -0.0654 log2 (difference from the parental peptide); as for chain 1 F15V, 2.71 log2 (difference from the parental peptide). Still for that read-out and setting: the value for chain 1 F15A was 2.04 log2 (difference from the parental peptide); that for chain 1 F15H was 2.15 log2 (difference from the parental peptide); that for chain 1 Y14Q was -5.69 log2 (difference from the parental peptide). Same read-out and setting: as for chain 1 Y14I, the figure is -4.18 log2 (difference from the parental peptide). chain 1 Y14R: the enrichment is -7.32 log2 (difference from the parental peptide). Same read-out and setting: as for chain 1 Y14T, the figure is -6.17 log2 (difference from the parental peptide). On the same count and under the same terms, the value for chain 1 Y14F was 0.0997 log2 (difference from the parental peptide); that for chain 1 C13G was -9.66 log2 (difference from the parental peptide); that for chain 1 C13N was -5.11 log2 (difference from the parental peptide). Same read-out and setting: as for chain 1 C13S, the figure is -4.71 log2 (difference from the parental peptide). In the case of chain 1 C13P, the enrichment was -6.51 log2 (difference from the parental peptide). On to chain 1 C13V, for which the enrichment was -4.73 log2 (difference from the parental peptide). Same read-out and setting: as for chain 1 D4F, the figure is -6.41 log2 (difference from the parental peptide); as for chain 1 D4P, -4.71 log2 (difference from the parental peptide); as for chain 1 D4Y, -4.35 log2 (difference from the parental peptide). As to chain 1 D4L, the enrichment was -6.1 log2 (difference from the parental peptide). Consider chain 1 D4H, for which the enrichment was -7 log2 (difference from the parental peptide). Same read-out and setting: the value for chain 1 D4I was -6.7 log2 (difference from the parental peptide); that for chain 1 T6V was -5.45 log2 (difference from the parental peptide); that for chain 1 T6I was -5.87 log2 (difference from the parental peptide).

For chain 1 T6N, the enrichment is 0.938 log2 (difference from the parental peptide). Still for that read-out and setting: as for chain 1 T6E, the figure is 3.09 log2 (difference from the parental peptide); as for chain 1 T6F, -4.18 log2 (difference from the parental peptide).

In the case of chain 1 T6C, the enrichment was -10.4 log2 (difference from the parental peptide).

For the variant chain 1 T6Y, the enrichment was -1.82 log2 (difference from the parental peptide). The same measure, in the same setting: as for chain 1 T6Q, the figure is 1.62 log2 (difference from the parental peptide); as for chain 1 E2A, -1.98 log2 (difference from the parental peptide); as for chain 1 E2H, -3.7 log2 (difference from the parental peptide). The same measure, in the same setting: as for chain 1 D3E, the figure is 1.49 log2 (difference from the parental peptide); as for chain 1 D3T, -2.84 log2 (difference from the parental peptide). Still for that read-out and setting: as for chain 1 T12P, the figure is 0.359 log2 (difference from the parental peptide); as for chain 1 T12S, -1.12 log2 (difference from the parental peptide). For the variant chain 1 T12V, the enrichment is -1.56 log2 (difference from the parental peptide). Same read-out and setting: as for chain 1 T12R, the figure is -1.56 log2 (difference from the parental peptide); as for chain 1 T12W, 0.647 log2 (difference from the parental peptide); as for chain 1 T12Y, 1.88 log2 (difference from the parental peptide). On the same count and under the same terms, the value for chain 1 T12G was -9.53 log2 (difference from the parental peptide); that for chain 1 T12C was -5.86 log2 (difference from the parental peptide).

Consider chain 1 Y5L, for which the enrichment was -5.06 log2 (difference from the parental peptide). On the same count and under the same terms, as for chain 1 Y5I, the figure is -7.45 log2 (difference from the parental peptide). Same read-out and setting: the value for chain 1 A9Y was -5.89 log2 (difference from the parental peptide).

Consider chain 1 A9E, for which the enrichment was 2.72 log2 (difference from the parental peptide). Same read-out and setting: as for chain 1 E1T, the figure is -1.42 log2 (difference from the parental peptide).

For the variant chain 1 E1Y, the enrichment is -0.577 log2 (difference from the parental peptide). Still for that read-out and setting: as for chain 1 E1R, the figure is -4.21 log2 (difference from the parental peptide); as for chain 1 E1G, -1.01 log2 (difference from the parental peptide). As for chain 1 E1I, the enrichment was -1.54 log2 (difference from the parental peptide). On the same count and under the same terms, as for chain 1 E1D, the figure is 2.01 log2 (difference from the parental peptide); as for chain 1 Y8L, -7.27 log2 (difference from the parental peptide).

With chain 1 Y8V, the enrichment is -4.63 log2 (difference from the parental peptide). For chain 1 Y8M, the enrichment is -7.72 log2 (difference from the parental peptide).

As for chain 1 Y8F, the enrichment is -0.41 log2 (difference from the parental peptide). On the same count and under the same terms, as for chain 1 L11W, the figure is -0.114 log2 (difference from the parental peptide); as for chain 1 L11T, -0.173 log2 (difference from the parental peptide). Same read-out and setting: the value for chain 1 L11V was 3.09 log2 (difference from the parental peptide); that for chain 1 L11R was 0.643 log2 (difference from the parental peptide). Same read-out and setting: the value for chain 1 L11Q was 1.31 log2 (difference from the parental peptide); that for chain 1 L11A was -2.67 log2 (difference from the parental peptide).

As for chain 1 L11S, the enrichment is -4.97 log2 (difference from the parental peptide). Same read-out and setting: the value for chain 1 L11Y was 0.82 log2 (difference from the parental peptide). For the variant chain 1 L11G, the enrichment is -8.48 log2 (difference from the parental peptide).
